The results in this text go back to patent US20250298041A1.

Assay [1] has as its target Recombinant LBD of GPIbα (residues 1-290), WT (human) (UniProt P07359). Briefly: VWF:NCo ELISA, immobilised GPIbα-LBD, 250 nM 6D12; activity/antigen ratio. On the technique in general: In an ELISA, binding on a coated surface is turned into a signal by an enzyme label.
For assay [2] the target is unchanged. Briefly: activity/antigen ratio; VWF:GPIbNab ELISA on LBD-WT with nanobody 6C4, pdVWF as reference.
The target is the same in assay [3]. Briefly: activity/antigen ratio; VWF:GPIbR ELISA on LBD-WT with 1.0 mg/mL ristocetin.
Assay [4] shares this target. Kind of assay: VWF:GPIbNab ELISA on LBD-WT with activating nanobodies; pdVWF as the reference.
Assay [5] shares this target. Briefly: activity/antigen ratio; VWF:GPIbNab ELISA on LBD-WT with nanobody 6C11, pdVWF as reference.
Assay [6] shares this target. Kind of assay: activity/antigen ratio; VWF:GPIbNab ELISA on LBD-WT with nanobody 6D12, pdVWF as reference.
Assay [7] deals with Recombinant LBD of GPIbα (residues 1-290), D235Y/M239V (human) (UniProt P07359). Briefly: activity/antigen ratio; VWF:GPIbM ELISA on LBD-D235Y/M239V without activator.
Recombinant LBD of GPIbα (residues 1-290), D235Y/M239V (human), sequence (P07359 17-306 D251Y/M255V limits assumed, form in doubt): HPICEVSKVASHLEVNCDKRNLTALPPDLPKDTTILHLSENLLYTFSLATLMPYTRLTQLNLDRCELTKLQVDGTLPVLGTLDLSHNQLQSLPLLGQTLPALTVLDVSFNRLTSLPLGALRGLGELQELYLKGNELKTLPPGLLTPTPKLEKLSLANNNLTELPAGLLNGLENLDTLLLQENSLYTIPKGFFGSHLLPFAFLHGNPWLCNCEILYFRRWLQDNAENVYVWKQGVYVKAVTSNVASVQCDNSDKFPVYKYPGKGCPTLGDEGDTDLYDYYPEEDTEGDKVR
For assay [8], the target named is Recombinant LBD of GPIbα (residues 1-290), WT (human) (UniProt P07359). Briefly: VWF:GPIbNab ELISA on LBD-WT with 6C11; pdVWF as the reference.
Recombinant LBD of GPIbα (residues 1-290), WT (human), sequence (P07359 17-306 limits assumed, form in doubt): as the sequence (P07359 17-306 D251Y/M255V limits assumed, form in doubt) above, with Y235D, V239M counted along it
For assay [9] the target is unchanged. Kind of assay: VWF:GPIbNab ELISA on LBD-WT with 6C4 or 6D12 (not said which gives which end); pdVWF as the reference.

On to “Humate P (from UniProt P04275 764-2813) (ligand)”, for which the VWF:NCo/VWF:Ag ratio in assay [1] was determined as 1.2.
For the substance “Plasma-derived VWF (pdVWF, Alphanate) (from UniProt P04275 764-2813) (ligand)”, the VWF:GPIbNab6C4/VWF:Ag in assay [2] worked out at 1.05. Also, the VWF:GPIbR/VWF:Ag in assay [3] was 0.84. For the same substance, the VWF:GPIbNab/VWF:Ag ratio in assay [4] is 1. In addition, the VWF:GPIbNab6C11/VWF:Ag in assay [5] was 1.01. The VWF:GPIbNab6D12/VWF:Ag in assay [6] was found to be 0.93. Further, the VWF:NCo/VWF:Ag ratio in [1] turned out to be 1.
As to “recombinant VWF (rVWF, Vonvendi) (from UniProt P04275 764-2813) (ligand)”, in assay [2], the VWF:GPIbNab6C4/VWF:Ag is 1.31. Also, the VWF:GPIbR/VWF:Ag in assay [3] worked out at 1.25. The VWF:GPIbM/VWF:Ag in assay [7] came to 2.1. Besides, the VWF:GPIbNab6D12/VWF:Ag in [6] is 1.26. In addition, the VWF:GPIbNab/VWF:Ag ratio is 2.26 in [8] and 1.2 to 1.4 in assay [9]. Besides, the VWF:NCo/VWF:Ag ratio in [1] is 1.9.
